# Data taken from the supplement of paper PMC9112550, “Optimization of the antimicrobial peptide Bac7 by deep mutational scanning” (BMC Biology, 2022).
# Test system: Escherichia coli TOP10
# Test: shrunken log2 fold change of peptide-encoding DNA abundance (4.5 h post-induction vs induction); higher = less antimicrobial activity (less host growth inhibition)
# Details: time post-induction: 4.5 h; library: site-saturation at positions 5, 18, 19, 20
# 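Note: peptides expressed intracellularly from a pBAD plasmid library in pooled LB shake-flask culture, induced with 0.3% L-arabinose, DNA abundance read by NGS, three biological replicates, DESeq2 with apeglm shrinkage.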
row,Sequence,shrunken log2 fold change
1,RRIRCRPPRLPRPRPRPRTEPRP,0.0022
2,RRIRQRPPRLPRPRPRPNSAPRP,-0.173
3,RRIRGRPPRLPRPRPRPTYYPRP,0.0798
4,RRIRFRPPRLPRPRPRPMIKPRP,-0.749
5,RRIRGRPPRLPRPRPRPLSAPRP,0.507
6,RRIRWRPPRLPRPRPRPSAPPRP,0.499
7,RRIRKRPPRLPRPRPRPKCYPRP,-0.0561
8,RRIRYRPPRLPRPRPRPRRLPRP,-0.385
9,RRIRSRPPRLPRPRPRPTQTPRP,1.09
10,RRIRARPPRLPRPRPRPDSPPRP,0.342
11,RRIRIRPPRLPRPRPRPQRNPRP,-0.188
12,RRIRHRPPRLPRPRPRPEYRPRP,-0.0136
13,RRIRERPPRLPRPRPRPWEEPRP,-0.0572
14,RRIRKRPPRLPRPRPRPTFKPRP,0.0344
15,RRIRDRPPRLPRPRPRPTIQPRP,-0.0142
16,RRIRARPPRLPRPRPRPFTGPRP,-0.00992
17,RRIRDRPPRLPRPRPRPFFPPRP,0.0715
18,RRIRDRPPRLPRPRPRPAHQPRP,0.516
19,RRIRNRPPRLPRPRPRPFCRPRP,-0.223
20,RRIRIRPPRLPRPRPRPDDPPRP,-0.0328
21,RRIRPRPPRLPRPRPRPPQHPRP,0.485
22,RRIRARPPRLPRPRPRPMDKPRP,0.0591

row,Sequence,shrunken log2 fold change
1,RRIRVRPPRLPRPRPRPHFIPRP,-0.304
2,RRIRERPPRLPRPRPRPYWIPRP,-0.376
3,RRIRLRPPRLPRPRPRPDGLPRP,-0.115
4,RRIRLRPPRLPRPRPRPTIKPRP,-0.395
5,RRIRKRPPRLPRPRPRPHPTPRP,0.431
6,RRIRARPPRLPRPRPRPFIPPRP,-0.492
7,RRIRDRPPRLPRPRPRPYQQPRP,-0.184
8,RRIRNRPPRLPRPRPRPKFLPRP,0.0309
9,RRIRKRPPRLPRPRPRPNSDPRP,-0.0158
10,RRIRWRPPRLPRPRPRPDKSPRP,-0.135
11,RRIRLRPPRLPRPRPRPKASPRP,-0.231
12,RRIRSRPPRLPRPRPRPAKWPRP,0.235
13,RRIRFRPPRLPRPRPRPLQLPRP,-0.51
14,RRIRARPPRLPRPRPRPRKFPRP,0.421
15,RRIRARPPRLPRPRPRPCCLPRP,0.0817
16,RRIRVRPPRLPRPRPRPKRKPRP,0.376
17,RRIRWRPPRLPRPRPRPIEVPRP,0.0279
18,RRIRQRPPRLPRPRPRPIKSPRP,-0.117
19,RRIRARPPRLPRPRPRPSNRPRP,-0.457
20,RRIRLRPPRLPRPRPRPLWAPRP,0.129
21,RRIRERPPRLPRPRPRPERRPRP,-0.0345
22,RRIRKRPPRLPRPRPRPECWPRP,0.744

row,Sequence,shrunken log2 fold change
1,RRIRCRPPRLPRPRPRPRMQPRP,0.349
2,RRIRLRPPRLPRPRPRPEQSPRP,-0.0314
3,RRIRHRPPRLPRPRPRPIPRPRP,-0.0447
4,RRIRCRPPRLPRPRPRPPYTPRP,-0.343
5,RRIRHRPPRLPRPRPRPCFIPRP,-0.385
6,RRIRVRPPRLPRPRPRPDIKPRP,-0.912
7,RRIRDRPPRLPRPRPRPPKAPRP,-0.122
8,RRIRCRPPRLPRPRPRPAQYPRP,-0.467
9,RRIRPRPPRLPRPRPRPHFFPRP,0.118
10,RRIRKRPPRLPRPRPRPNWPPRP,0.19
11,RRIRMRPPRLPRPRPRPPVNPRP,0.648
12,RRIRMRPPRLPRPRPRPQCLPRP,-0.108
13,RRIRLRPPRLPRPRPRPTLYPRP,2.28
14,RRIRKRPPRLPRPRPRPVVHPRP,0.122
15,RRIRCRPPRLPRPRPRPWCMPRP,-0.585
16,RRIRIRPPRLPRPRPRPLETPRP,-0.0471
17,RRIRVRPPRLPRPRPRPITDPRP,-0.069
18,RRIRNRPPRLPRPRPRPWLDPRP,-0.029
19,RRIRKRPPRLPRPRPRPCHTPRP,0.0319
20,RRIRERPPRLPRPRPRPEKKPRP,-0.0578
21,RRIRRRPPRLPRPRPRPKPNPRP,0.531
22,RRIRERPPRLPRPRPRPGHQPRP,-0.236

row,Sequence,shrunken log2 fold change
1,RRIRRRPPRLPRPRPRPMGWPRP,0.637
2,RRIRWRPPRLPRPRPRPVYFPRP,-0.418
3,RRIRRRPPRLPRPRPRPTIYPRP,-0.1
4,RRIRKRPPRLPRPRPRPIHWPRP,0.137
5,RRIRKRPPRLPRPRPRPKDSPRP,0.218
6,RRIRTRPPRLPRPRPRPQKGPRP,-0.00821
7,RRIRARPPRLPRPRPRPRCEPRP,0.416
8,RRIRDRPPRLPRPRPRPAIPPRP,-0.538
9,RRIRFRPPRLPRPRPRPYMEPRP,-0.0116
10,RRIRRRPPRLPRPRPRPDLDPRP,0.67
11,RRIRWRPPRLPRPRPRPVRCPRP,0.418
12,RRIRPRPPRLPRPRPRPYGSPRP,-0.0157
13,RRIRTRPPRLPRPRPRPSNTPRP,-0.732
14,RRIRNRPPRLPRPRPRPRDGPRP,0.292
15,RRIRLRPPRLPRPRPRPYEHPRP,-0.583
16,RRIRYRPPRLPRPRPRPIDAPRP,-0.284
17,RRIRIRPPRLPRPRPRPMMLPRP,-0.0496
18,RRIRIRPPRLPRPRPRPEQGPRP,0.0755
19,RRIRLRPPRLPRPRPRPGSIPRP,-0.301
20,RRIRLRPPRLPRPRPRPCVNPRP,-0.00681
21,RRIRWRPPRLPRPRPRPINFPRP,-0.143
22,RRIRTRPPRLPRPRPRPWFWPRP,0.0569

row,Sequence,shrunken log2 fold change
1,RRIRSRPPRLPRPRPRPAIYPRP,-1.04
2,RRIRRRPPRLPRPRPRPADGPRP,0.344
3,RRIRCRPPRLPRPRPRPDGFPRP,-0.333
4,RRIRYRPPRLPRPRPRPDYTPRP,-0.174
5,RRIRYRPPRLPRPRPRPFYWPRP,-1.7
6,RRIRERPPRLPRPRPRPQWPPRP,-0.0675
7,RRIRMRPPRLPRPRPRPCKLPRP,-0.00365
8,RRIRVRPPRLPRPRPRPWPNPRP,0.179
9,RRIRSRPPRLPRPRPRPCKYPRP,-0.0911
10,RRIRQRPPRLPRPRPRPWARPRP,-0.0405
11,RRIRSRPPRLPRPRPRPNPQPRP,0.126
12,RRIRYRPPRLPRPRPRPKQSPRP,-0.156
13,RRIRDRPPRLPRPRPRPEAFPRP,0.119
14,RRIRKRPPRLPRPRPRPCMLPRP,-0.245
15,RRIRKRPPRLPRPRPRPKYNPRP,-0.267
16,RRIRRRPPRLPRPRPRPFLPPRP,0.111
17,RRIRYRPPRLPRPRPRPVYDPRP,-0.112
18,RRIRGRPPRLPRPRPRPICDPRP,0.717
19,RRIRNRPPRLPRPRPRPFLNPRP,-0.392
20,RRIRPRPPRLPRPRPRPKRAPRP,0.395
21,RRIRKRPPRLPRPRPRPQLAPRP,0.898
